Experimental data: the supplement of paper PMC10567573
± gives the standard deviation.

Assay: protein stability index of a GFP-peptide fusion (GPS, HEK-293T) (PSI 1-6); higher = more stable
[1] = treatment: DMSO, c terminus: a fixed tail appended
[2] = treatment: MLN4924 1 uM, 8 h, c terminus: a fixed tail appended
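Further: 24-mer peptide tiles fused after GFP, lentivirally expressed, FACS-sorted into six equal bins by GFP/DsRed ratio, decoded by Illumina sequencing, PSI is the read-weighted mean bin number.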

Sequence | protein stability index [1] | protein stability index [2] | protein stability index (treatment: DMSO, c terminus: native) | protein stability index (treatment: MLN4924 1 uM, 8 h, c terminus: native)
DLKPENILFVNSEFETLYNEHKSC [CLK3] | 3.38 ± 0.37 | 3.48 ± 0.26 | – | –
LNWKMTLCLLVAWSIVGMAVVKGI [SLC6A17] | 2.61 ± 0.67 | 2.45 ± 0.48 | – | –
KQYDQQFPDGDDEFDSPHEDIVFE [STX11] | 5.18 ± 0.14 | 5.11 ± 0.2 | – | –
KFSQNSHLIKHRRTHTGEQPYTCS [ZNF75A] | 2.93 ± 0.14 | 3 ± 0.34 | – | –
LALKLPDGSYALNGEYTLMPSPTD [ADAMTS4] | 2.35 ± 0.15 | 2.41 ± 0.28 | – | –
QLHHVVYCFMIAYGTQRTLILESQ [FUT8] | 3.12 ± 0.55 | 3.17 ± 0.36 | – | –
SQEYQILLDVKTRLEQEIATYRRL [KRT16] | 2.71 ± 0.34 | 2.88 ± 0.44 | – | –
DVDITLSSEAFHNYMNAAMVHINR [RTN3] | 2.18 ± 0.087 | 2.32 ± 0.25 | – | –
PASGSGADSEPARHIFSFSWLNSL [TRIM55] | 2.36 ± 0.16 | 2.5 ± 0.21 | – | –
CNDGRIVIWDFLTRGIAKIISAHI [RBBP5] | 3.03 ± 0.42 | 2.66 ± 0.41 | – | –
HECVNMEESYYCRCHRGYTLDPNG [MATN2] | 3.44 ± 0.67 | 3.36 ± 0.52 | – | –
FIYDCDPFTRRYYKEKFGITDLPR [EFHC1] | 2.35 ± 0.37 | 2.15 ± 0.26 | – | –
QTAVQFQQYAAQQYPGNYEQQQIL [ACBD3] | 3.71 ± 0.22 | 3.61 ± 0.23 | – | –
ERGPYRTRKHAHHCHKRRTRSCSS [CLK3] | 4.42 ± 0.24 | 4.51 ± 0.15 | – | –
TKCEYMLNSMPKRLCLVCGDIASG [ESRRG] | 2.32 ± 0.29 | 2.13 ± 0.12 | – | –
DDNSCEDLEEERREEEEKTPPETK [PCMTD2] | 5.73 ± 0.34 | 5.54 ± 0.25 | – | –
YREESDSLGQDLRRLRQELLKTEA [DAPK3] | 3.85 ± 0.68 | 3.83 ± 0.31 | – | –
SLAGALGVKFVGLFIILQVGLNTI [POMT2] | 3.27 ± 0.16 | 3.16 ± 1.2 | – | –
RAVDWWALGILIFEMLSGFPPFFD [PRKX] | 2.99 ± 0.42 | 2.78 ± 0.57 | – | –
KQLLDSKIGFEIGIENEEDTSKQK [ZNF449] | 5.3 ± 0.27 | 5.26 ± 0.3 | – | –
RSWMFRRGPLNSDRSDYFAAWGAR [TRIM43] | 2.5 ± 0.14 | 2.62 ± 0.47 | – | –
ERPPPPPSDDLTLLESSSSYKNLT [MCOLN1] | 5 ± 0.21 | 4.93 ± 0.21 | – | –

Sequence | protein stability index [1] | protein stability index [2] | protein stability index (treatment: DMSO, c terminus: native) | protein stability index (treatment: MLN4924 1 uM, 8 h, c terminus: native)
GPKESLPVIAAPSMWTRPQIKDFK [ACBD3] | 3.8 ± 0.29 | 3.79 ± 0.16 | – | –
LATFSSDWEIQEDSRLMCSSVQKA [CCDC3] | 4 ± 0.44 | 3.9 ± 0.29 | – | –
ACGSSSYVASIVDGGESRSEKGDS [RBMY1A1] | 5.22 ± 0.31 | 5.16 ± 0.35 | – | –
TLGREVMSPLQAMSSYTVAGRNVL [NLN] | 3.1 ± 0.2 | 3.01 ± 0.34 | – | –
GPALPNGPLLGTNGATDDSKTNLI [ELAVL3] | 4.99 ± 0.17 | 4.93 ± 0.33 | – | –
PAPKSTYECRCIGEEKEMWNFGEK [TIA1] | 3.86 ± 0.23 | 3.85 ± 0.33 | – | –
PLKAQNDLDISRIKRGNTTLESTD [P2RY14] | 5 ± 0.11 | 5.24 ± 0.24 | – | –
GLPAQQVGPWLGQLQELLHHCDDH [RSAD1] | 3.6 ± 0.34 | 3.61 ± 0.29 | – | –
DIKRLLVNFMYLQSLLQPKSSSVD [SMG5] | 2.97 ± 0.54 | 3.08 ± 0.51 | – | –
HGPQLPTGIEGNWGRLLEQVGTMA [ZBED2] | 3 ± 0.35 | 3.08 ± 0.24 | – | –
LQDLALQGAKERAHQQKKHSGFED [CHGA] | 4.92 ± 0.29 | 5.06 ± 0.22 | – | –
NIYYYLEDDSMSVIEPVVENSGIL [EFHC1] | 2.45 ± 0.43 | 2.41 ± 0.42 | – | –
ACIVVLDRTSHRLHTANLGDSGFL [PPTC7] | 2.68 ± 0.48 | 2.24 ± 0.43 | – | –
HFPASPFWSVMFFLMLINLGLGSM [SLC6A17] | 3.67 ± 0.42 | 3.4 ± 0.25 | – | –
SVSKAQSIYGIPHSTLEYKVKERL [LCOR] | 3.42 ± 0.43 | 3.54 ± 0.13 | – | –
FADGVLSGEELHELFHTIDTHNTN [NECAB1] | 3.12 ± 0.38 | 3.68 ± 0.21 | – | –
RIIYQNKCMRNGPNALIASLALGD [EDNRA] | 2.48 ± 0.18 | 2.26 ± 0.21 | – | –
KQESTRPEKKSDQPMCEEHEEERI [TRIM55] | 5.73 ± 0.12 | 5.48 ± 0.26 | – | –
VNPLHVDSTWLLLRRIRAESGTKG [SLC25A39] | 2.83 ± 0.3 | 2.74 ± 0.33 | – | –
RERLGEIHTLPLPASLKAYLLYQ [SPSB1] | – | – | 2.3 ± 0.32 | 2.26 ± 0.27
GCLLDDGLEGLFEDIDTSMYDNEL [SERTAD1] | 4.28 ± 0.48 | 4.32 ± 0.42 | – | –
QRGRVISLWERLEFVNGWYILLVT [MCOLN1] | 2.79 ± 0.68 | 2.67 ± 0.65 | – | –

Sequence | protein stability index [1] | protein stability index [2] | protein stability index (treatment: DMSO, c terminus: native) | protein stability index (treatment: MLN4924 1 uM, 8 h, c terminus: native)
LRDDVLCARMLYNYGADTNTRNYE [ASB7] | 3.1 ± 0.21 | 2.86 ± 0.14 | – | –
GKKVSNQRFEVIEFDDGSGSVLRI [PTPRD] | 2.38 ± 0.74 | 2.5 ± 0.26 | – | –
HFWQLFNALTLFNLAQDPQCKEWQ [TMEM120A] | 3.17 ± 0.61 | 3.72 ± 0.76 | – | –
LIKNNSLPRKRQSLRSSSSKLAQL [INTS3] | 2.99 ± 0.27 | 3.31 ± 0.17 | – | –
ATETQALAQRTQQDSTRTVGERLQ [TEKT4] | 5.14 ± 0.43 | 5.43 ± 0.15 | – | –
MADGNEDLRADDLPGPAFESYESM [KLHDC2] | 5.41 ± 0.23 | 5.26 ± 0.26 | – | –
TMGLRHLPVVNAVGEIVGIITRHN [CLCN6] | 2.47 ± 0.19 | 2.41 ± 0.12 | – | –
HRWQVDLQLGDGGGCTVGVAGEGV [TRIM15] | 3.5 ± 0.27 | 3.38 ± 0.43 | – | –
RANRGILQQERQRLGQRQPPPSEP [DNAJC4] | 4.79 ± 0.22 | 4.79 ± 0.087 | – | –
ESLPVSLGPESWQQIAMDPEEVKS [BCL2L13] | 5.39 ± 0.21 | 5.27 ± 0.31 | – | –
ILHGTRGELLLDVAWHPVRPIIAS [RBBP5] | 2.51 ± 0.33 | 2.52 ± 0.25 | – | –
RLCGRQVSRGPGVNVGTTALWKHL [ZBED2] | 2.29 ± 0.36 | 2.17 ± 0.31 | – | –
SMAAVPTLELCHDELFADLFNSNH [CEBPD] | 3.57 ± 0.3 | 3.6 ± 0.26 | – | –
TLVGCWSDVVGRRSSLLACILLSA [MFSD9] | 2.84 ± 0.38 | 2.71 ± 0.4 | – | –
GASSLPTTMNYPLWSQSYEDSSNQ [MAGEA3] | 4.42 ± 0.11 | 4.57 ± 0.15 | – | –
LSSDRVANSSSEAPFPNVSTSLLT [ADAMTSL2] | 4.17 ± 0.21 | 4.14 ± 0.29 | – | –
MLTRRVLQLETVLEGVVSQIDAVG [PKD2L1] | 2.29 ± 0.49 | 2.46 ± 0.51 | – | –
RLKEYTIKSHSSLPPNNSYADFER [DAPK3] | 3.58 ± 0.26 | 3.61 ± 0.25 | – | –
LVVDYIDEGRLVLEFSLLSYAFGK [SOAT1] | 3.29 ± 0.8 | 3.17 ± 0.48 | – | –
FSLEQQLDDEDDDEEDCPNPEEYN [SRPK2] | 5.61 ± 0.27 | 5.71 ± 0.13 | – | –
QAGPEATTSDPQDLDMKKHRCKCC [PALM] | 5.06 ± 0.3 | 5.17 ± 0.11 | – | –
